Data on 10 molecules can be found in patent US11001838B2, “Platform for screening phosphomevalonate decarboxylase” (The Regents of the University of California, priority 2017, dated 2021).

Where “and” joins values, the source holds several entries; their conditions need not be identical. Equal entries are not always repeated.

Substrate in data set [1]: C[C@@](O)(CCOP(=O)(O)O)CC(=O)O
In words: purified protein, by the assay type. Particulars: other: MVAP 0.100-4.0 mM, 4 mM ATP, pH 7.5, brackets: standard error.
Experimental: This turnover number (kobs) depends upon each mutant's kcat, KM, and KI, yielding a more accurate assessment of the turnover conditions in vivo (Kang et al., 2016).
In vitro enzyme kinetics of PMDsc were performed as described in the previous study (Kang et al., 2016). Briefly, enzymatic activity was determined by a spectrophotometric assay quantifying ADP product formation via the pyruvate kinase/lactate dehydrogenase coupled enzyme assay. Assay mixtures were prepared in 150 μL total volume containing 50 mM HEPES-KOH (pH 7.5), 10 mM MgCl2, 400 μM phosphoenolpyruvate, 400 μM NADH, 4 mM ATP, and 25 U of pyruvate kinase/lactate dehydrogenase. The reaction was initiated by enzyme after incubating PMDsc substrate and cofactor for fifteen minutes with coupled assay components. The MVAP was varied from 0.100-4.0 mM, and the reaction velocity was determined by monitoring the absorbance at 340 nm in a Spectramax 384plus microplate reader (Molecular Devices, USA). To obtain kinetic data relevant to non-competitive substrate inhibition, MVAP was varied from 0.100-100 mM. Enzyme concentration (ε=56,630 M^−1 cm^−1) was determined spectrophotometrically at 280 nm with a NanoDrop ND-1000 spectrophotometer. kcat and KM were derived for PMDsc mutants by fitting the initial velocities measured from 0.100-4.0 mM MVAP to the Michaelis-Menten equation; KI was determined for select mutants by fitting initial velocities measured from 0.100-100 mM MVAP to the non-competitive substrate inhibition equation. All kinetic analysis was performed in Graphpad Prism, version 7.0a.

The subject of data set [2] is E. coli DH1. In words: Isopentenol production in E. coli via IPP-bypass MVA pathway (GC-FID). The class given is cell-based, Escherichia coli.
The subject of data set [3] is E. coli DH1. The data set can be described thus: Growth of E. coli DH1 under the screening conditions (MEP pathway blocked by fosmidomycin, IPP-bypass pathway + IPK).
Data set [4] is described as follows: In vitro enzyme kinetics of PMDsc variants (pyruvate kinase/lactate dehydrogenase coupled assay). In kind it is biochemical.
The mark [5] stands for this setting: text and figure legends, 48 hours after induction.
The mark [6] stands for this setting: Table 2, screening conditions, standard deviation in brackets.
[7] abbreviates: Table 2, MVAP 0.100-4.0 mM, standard error in brackets.
Setting [8] is: Table 2, MVAP, standard error in brackets.
Where [9] appears, read: compared with wild type or library mutants.

B1: Saccharomyces cerevisiae diphosphomevalonate decarboxylase (PMDsc), wild type, SEQ ID NO: 1 (Saccharomyces cerevisiae S288C) (protein)
chain: MTVYTASVTAPVNIATLKYWGKRDTKLNLPTNSSISVTLSQDDLRTLTSAATAPEFERDTLWLNGEPHSIDNERTQNCLRDLRQLRKEMESKDASLPTLSQWKLHIVSENNFPTAAGLASSAAGFAALVSAIAKLYQLPQSTSEISRIARKGSGSACRSLFGGYVAWEMGKAEDGHDSMAVQIADSSDWPQMKACVLVVSDIKKDVSSTQGMQLTVATSELFKERIEHVVPKRFEVMRKAIVEKDFATFAKETMMDSNSFHATCLDSFPPIFYMNDTSKRIISWCHTINQFYGETIVAYTFDAGPNAVLYYLAENESKLFAFIYKLFGSVPGWDKKFTTEQLEAFNHQFESSNFTARELDLELQKDVARVILTQVGSGPQETNESLIDAKTGLPKE
Consider B1, for which the Km in data set [1] was 2.3 ± 0.2 mM. Moreover, the kcat in data set [1] was 0.15 (0.01) sec^−1. For the same molecule, in data set [1], the kcat/Km is reported as 0.066 (0.007) mM^−1 sec^−1. In data set [2], the “48 hr Titer (isopentenol)” value was 475 (40) mg/L and 475 mg/L. For the same molecule, the isopentenol titer turned out to be 475.1 mg/L in data set [2] (setting [5]); 475 mg/L in data set [2] (text and figure legends, 48 hours after induction, listed as wild type). Moreover, the Growth rate was 0.83±0.01 hr^1 in data set [3] (10-fold higher inducer concentration (100 nM aTc)), 0.39 (0.02) hr^−1 in data set [3] (setting [6]), 0.39 h⁻¹ in data set [3] (Table 3) and 0.4 h⁻¹ in data set [3] (screening conditions). Besides, the “growth rate (reference line FIG. 6)” value in data set [3] (FIG. 6 legend) is recorded as 0.4.

B2: Saccharomyces cerevisiae diphosphomevalonate decarboxylase (PMDsc, SEQ ID NO: 1) variant R74G (Saccharomyces cerevisiae S288C; R74G) (protein)
chain: MTVYTASVTAPVNIATLKYWGKRDTKLNLPTNSSISVTLSQDDLRTLTSAATAPEFERDTLWLNGEPHSIDNEGTQNCLRDLRQLRKEMESKDASLPTLSQWKLHIVSENNFPTAAGLASSAAGFAALVSAIAKLYQLPQSTSEISRIARKGSGSACRSLFGGYVAWEMGKAEDGHDSMAVQIADSSDWPQMKACVLVVSDIKKDVSSTQGMQLTVATSELFKERIEHVVPKRFEVMRKAIVEKDFATFAKETMMDSNSFHATCLDSFPPIFYMNDTSKRIISWCHTINQFYGETIVAYTFDAGPNAVLYYLAENESKLFAFIYKLFGSVPGWDKKFTTEQLEAFNHQFESSNFTARELDLELQKDVARVILTQVGSGPQETNESLIDAKTGLPKE
In the case of B2, in data set [1], the Km is reported as 3.4 (1.0) mM, the kcat is reported as 0.14 (0.02) sec^−1 and the kcat/Km is reported as 0.04 (0.01) mM^−1 sec^−1. In addition, the “48 hr Titer (isopentenol)” value in data set [2] is 975 (96) mg/L and 975 mg/L. The Growth rate in data set [3] (setting [6]) was 0.81 (0.03) hr^−1. Further, the Growth rate in data set [3] (Table 3) was 0.81 h⁻¹.

B3: S155E (protein)
chain: MTVYTASVTAPVNIATLKYWGKRDTKLNLPTNSSISVTLSQDDLRTLTSAATAPEFERDTLWLNGEPHSIDNERTQNCLRDLRQLRKEMESKDASLPTLSQWKLHIVSENNFPTAAGLASSAAGFAALVSAIAKLYQLPQSTSEISRIARKGSGEACRSLFGGYVAWEMGKAEDGHDSMAVQIADSSDWPQMKACVLVVSDIKKDVSSTQGMQLTVATSELFKERIEHVVPKRFEVMRKAIVEKDFATFAKETMMDSNSFHATCLDSFPPIFYMNDTSKRIISWCHTINQFYGETIVAYTFDAGPNAVLYYLAENESKLFAFIYKLFGSVPGWDKKFTTEQLEAFNHQFESSNFTARELDLELQKDVARVILTQVGSGPQETNESLIDAKTGLPKE
Take B3: the “growth under fosmidomycin selection pressure” value in data set [3] (screening platform) was “impaired growth”.

B4: R74G-E144D (protein)
chain: MTVYTASVTAPVNIATLKYWGKRDTKLNLPTNSSISVTLSQDDLRTLTSAATAPEFERDTLWLNGEPHSIDNEGTQNCLRDLRQLRKEMESKDASLPTLSQWKLHIVSENNFPTAAGLASSAAGFAALVSAIAKLYQLPQSTSDISRIARKGSGSACRSLFGGYVAWEMGKAEDGHDSMAVQIADSSDWPQMKACVLVVSDIKKDVSSTQGMQLTVATSELFKERIEHVVPKRFEVMRKAIVEKDFATFAKETMMDSNSFHATCLDSFPPIFYMNDTSKRIISWCHTINQFYGETIVAYTFDAGPNAVLYYLAENESKLFAFIYKLFGSVPGWDKKFTTEQLEAFNHQFESSNFTARELDLELQKDVARVILTQVGSGPQETNESLIDAKTGLPKE
In the case of B4, the “isopentenol titer relative to wild type” value in data set [2] is 1.6 fold.

B5: R74G-R147K-Q140L: PMDsc triple mutant (protein)
chain: MTVYTASVTAPVNIATLKYWGKRDTKLNLPTNSSISVTLSQDDLRTLTSAATAPEFERDTLWLNGEPHSIDNEGTQNCLRDLRQLRKEMESKDASLPTLSQWKLHIVSENNFPTAAGLASSAAGFAALVSAIAKLYQLPLSTSEISKIARKGSGSACRSLFGGYVAWEMGKAEDGHDSMAVQIADSSDWPQMKACVLVVSDIKKDVSSTQGMQLTVATSELFKERIEHVVPKRFEVMRKAIVEKDFATFAKETMMDSNSFHATCLDSFPPIFYMNDTSKRIISWCHTINQFYGETIVAYTFDAGPNAVLYYLAENESKLFAFIYKLFGSVPGWDKKFTTEQLEAFNHQFESSNFTARELDLELQKDVARVILTQVGSGPQETNESLIDAKTGLPKE
Regarding B5, the kcat in data set [4] (setting [7]) is 0.06 (0.01) sec^−1. In addition, the Km in data set [4] (setting [8]) worked out at 2000 µM. Also, the “48 hr Titer (isopentenol)” value in data set [2] is listed as 401 (10) mg/L.

B6: Q140L (protein)
chain: MTVYTASVTAPVNIATLKYWGKRDTKLNLPTNSSISVTLSQDDLRTLTSAATAPEFERDTLWLNGEPHSIDNERTQNCLRDLRQLRKEMESKDASLPTLSQWKLHIVSENNFPTAAGLASSAAGFAALVSAIAKLYQLPLSTSEISRIARKGSGSACRSLFGGYVAWEMGKAEDGHDSMAVQIADSSDWPQMKACVLVVSDIKKDVSSTQGMQLTVATSELFKERIEHVVPKRFEVMRKAIVEKDFATFAKETMMDSNSFHATCLDSFPPIFYMNDTSKRIISWCHTINQFYGETIVAYTFDAGPNAVLYYLAENESKLFAFIYKLFGSVPGWDKKFTTEQLEAFNHQFESSNFTARELDLELQKDVARVILTQVGSGPQETNESLIDAKTGLPKE
With B6, the “isopentenol titer” value in data set [2] (setting [9]) was “increased isopentenol production titers”.

B7: V230E: PMDsc mutant V230E (protein)
chain: MTVYTASVTAPVNIATLKYWGKRDTKLNLPTNSSISVTLSQDDLRTLTSAATAPEFERDTLWLNGEPHSIDNERTQNCLRDLRQLRKEMESKDASLPTLSQWKLHIVSENNFPTAAGLASSAAGFAALVSAIAKLYQLPQSTSEISRIARKGSGSACRSLFGGYVAWEMGKAEDGHDSMAVQIADSSDWPQMKACVLVVSDIKKDVSSTQGMQLTVATSELFKERIEHVEPKRFEVMRKAIVEKDFATFAKETMMDSNSFHATCLDSFPPIFYMNDTSKRIISWCHTINQFYGETIVAYTFDAGPNAVLYYLAENESKLFAFIYKLFGSVPGWDKKFTTEQLEAFNHQFESSNFTARELDLELQKDVARVILTQVGSGPQETNESLIDAKTGLPKE
For the molecule B7, the Ki in data set [4] (MVAP up to 100 mM, read-out: KI (substrate inhibition)) was 10 mM. Further, the kcat is 0.07 (0.01) sec^−1 in data set [4] (setting [7]) and 0.07 s⁻¹ in data set [4] (Table 3). The Km in data set [4] (setting [8]) and in data set [4] (Table 3) was 800 µM each time. The kobs in data set [4] (Table 3, observed turnover number calculated at 100 mM MVAP) was 0.006 s⁻¹. The “48 hr Titer (isopentenol)” value in data set [2] was 278 (91) mg/L and 278 mg/L. Further, the Growth rate in data set [3] (setting [6]) was 0.21 (0.18) hr^−1; in data set [3] (Table 3), 0.2 h⁻¹.

B8: R74G-R147K: PMDsc double mutant (protein)
chain: MTVYTASVTAPVNIATLKYWGKRDTKLNLPTNSSISVTLSQDDLRTLTSAATAPEFERDTLWLNGEPHSIDNEGTQNCLRDLRQLRKEMESKDASLPTLSQWKLHIVSENNFPTAAGLASSAAGFAALVSAIAKLYQLPQSTSEISKIARKGSGSACRSLFGGYVAWEMGKAEDGHDSMAVQIADSSDWPQMKACVLVVSDIKKDVSSTQGMQLTVATSELFKERIEHVVPKRFEVMRKAIVEKDFATFAKETMMDSNSFHATCLDSFPPIFYMNDTSKRIISWCHTINQFYGETIVAYTFDAGPNAVLYYLAENESKLFAFIYKLFGSVPGWDKKFTTEQLEAFNHQFESSNFTARELDLELQKDVARVILTQVGSGPQETNESLIDAKTGLPKE
Turning to B8, in data set [4] (setting [7]), the kcat is 0.22 (0.01) sec^−1. For the same molecule, the Km in data set [4] (setting [8]) was determined as 530 µM. Also, in data set [2], the “isopentenol titer relative to wild type” value was found to be 1.9 fold and the “48 hr Titer (isopentenol)” value is recorded as 909 (25) mg/L. For the same molecule, the Growth rate in data set [3] (setting [6]) is given as 0.84 (0.04) hr^−1.

B9: E144D (protein)
chain: MTVYTASVTAPVNIATLKYWGKRDTKLNLPTNSSISVTLSQDDLRTLTSAATAPEFERDTLWLNGEPHSIDNERTQNCLRDLRQLRKEMESKDASLPTLSQWKLHIVSENNFPTAAGLASSAAGFAALVSAIAKLYQLPQSTSDISRIARKGSGSACRSLFGGYVAWEMGKAEDGHDSMAVQIADSSDWPQMKACVLVVSDIKKDVSSTQGMQLTVATSELFKERIEHVVPKRFEVMRKAIVEKDFATFAKETMMDSNSFHATCLDSFPPIFYMNDTSKRIISWCHTINQFYGETIVAYTFDAGPNAVLYYLAENESKLFAFIYKLFGSVPGWDKKFTTEQLEAFNHQFESSNFTARELDLELQKDVARVILTQVGSGPQETNESLIDAKTGLPKE
Consider B9, for which the “isopentenol titer” value in data set [2] (setting [9]) is recorded as “increased isopentenol production titers”.

B10: K22Y: PMDsc mutant K22Y (protein)
chain: MTVYTASVTAPVNIATLKYWGYRDTKLNLPTNSSISVTLSQDDLRTLTSAATAPEFERDTLWLNGEPHSIDNERTQNCLRDLRQLRKEMESKDASLPTLSQWKLHIVSENNFPTAAGLASSAAGFAALVSAIAKLYQLPQSTSEISRIARKGSGSACRSLFGGYVAWEMGKAEDGHDSMAVQIADSSDWPQMKACVLVVSDIKKDVSSTQGMQLTVATSELFKERIEHVVPKRFEVMRKAIVEKDFATFAKETMMDSNSFHATCLDSFPPIFYMNDTSKRIISWCHTINQFYGETIVAYTFDAGPNAVLYYLAENESKLFAFIYKLFGSVPGWDKKFTTEQLEAFNHQFESSNFTARELDLELQKDVARVILTQVGSGPQETNESLIDAKTGLPKE
For the molecule B10, the “48 hr Titer (isopentenol)” value in data set [2] is 22 (8) mg/L. For the same molecule, the isopentenol titer in data set [2] (setting [5]) turned out to be 22 ± 8 mg/L. Further, the Growth rate in data set [3] (setting [6]) was 0.13 (0.11) hr^−1.
